The target of assay [1] is T1, recombinant single-chain HLA-G monomer/human HLA-G β2M MHC class I complex (human).
T1 construct: also called wt-HLA-G complex; wt-HLA-G antigen
Description: SPR relative active concentration; Ref. (frozen at -80 C).

The target of assay [2] is T1, recombinant single-chain HLA-G …. Description: SPR relative active concentration; after 13 days His pH 6.0 at 40 C.
Assay [3] deals with T2, human HLA-G expressed on cells (JEG3 cells, natural; SKOV3 cells transfected with recombinant HLA-G) (human, UniProt P17693 25-338).
T2 construct: also called SKOV3 HLA-G
Put plainly: flow cytometry on SKOV3 HLA-G cells (SKOV3 transfected with HLA-G); antibody at 2 µg/ml per legend paragraph 51 (10 µg/ml per paragraph 491); detection with goat anti-human IgG (H+L) Alexa 488. A general note: A flow cytometer gives signals particle by particle.

Assay [4] deals with T2, human HLA-G expressed on cells (JEG3 …). Put plainly: flow cytometry; JEG3 cells pre-incubated with antibody, competitor ILT2-c-Myc-Fc at 10 ug/ml.
The target in assay [5] is T1, recombinant single-chain HLA-G …. Put plainly: SPR multi cycle kinetics (Biacore T200, 25 C); antibody captured via Fc on CM3 chip, HLA-G complex as analyte.
The target is the same in assay [6]. Put plainly: SPR relative active concentration; after 13 days PBS pH 7.4 at 37 C.
The target is the same in assay [7]. Put plainly: SPR single cycle kinetics (Biacore T200, 25 C); antibody captured via Fc on CM3 chip, HLA-G complex as analyte. (In general: In SPR one partner is held on a chip, and binding of the other changes the refractive index at the surface.)
For assay [8], the target named is T2, human HLA-G expressed on cells (JEG3 …). Description: flow cytometry on JEG3 cells (natural HLA-G); antibody at 2 µg/ml per legend paragraph 51 (10 µg/ml per paragraph 491); detection with goat anti-human IgG (H+L) Alexa 488.
Assay [9] concerns the target T3, human HLA-G β2M MHC class I complex, wherein the HLA-G specific amino acids have been replaced by HLA-A … (human).
T3 construct: Recombinant single-chain peptide-MHC complex construct; also called HLA-A consensus on HLA-G frame; degrafted HLA-G
Put plainly: SPR (Biacore T200, 25 C); antibody immobilized on CM3 chip, single-chain peptide-MHC as analyte.

Another assay concerns the target T4, rat RT1 (SEQ ID NO: 43) (rat).
T4 construct: Recombinant single-chain peptide-MHC complex construct (peptide, β2M, MHC class I molecule); also called rat RT1A β2M MHC class I complex
T4 chain: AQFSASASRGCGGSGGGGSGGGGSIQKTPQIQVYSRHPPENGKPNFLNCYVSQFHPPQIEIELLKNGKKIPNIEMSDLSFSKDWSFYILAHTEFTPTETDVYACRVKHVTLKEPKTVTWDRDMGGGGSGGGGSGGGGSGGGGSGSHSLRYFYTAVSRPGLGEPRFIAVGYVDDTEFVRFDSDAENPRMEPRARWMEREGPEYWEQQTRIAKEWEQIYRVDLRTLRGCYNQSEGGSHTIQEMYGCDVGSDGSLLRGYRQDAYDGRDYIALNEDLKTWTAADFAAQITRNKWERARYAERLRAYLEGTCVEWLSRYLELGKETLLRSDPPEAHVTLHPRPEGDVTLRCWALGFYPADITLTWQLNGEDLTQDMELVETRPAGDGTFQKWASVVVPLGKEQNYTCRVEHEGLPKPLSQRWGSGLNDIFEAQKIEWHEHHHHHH
The assay is described as above.

The target in assay [10] is T1, recombinant single-chain HLA-G …. Description: SPR multi cycle kinetics.
Assay [11] concerns the target T5, human CD3 expressed on cells (Jurkat NFAT reporter cells; human T cells isolated from PBMCs) (human, UniProt P07766 23-207).
T5 construct: on cells it is part of the CD3/TCR complex; also called CD3 on Jurkat cells; CD3 expressed on T-cells
Description: flow cytometry on Jurkat NFAT cells; IgG1 PGLALA format; detection with PE anti-human IgG Fc F(ab')2.

T5 sequence (P07766 23-207 limits assumed): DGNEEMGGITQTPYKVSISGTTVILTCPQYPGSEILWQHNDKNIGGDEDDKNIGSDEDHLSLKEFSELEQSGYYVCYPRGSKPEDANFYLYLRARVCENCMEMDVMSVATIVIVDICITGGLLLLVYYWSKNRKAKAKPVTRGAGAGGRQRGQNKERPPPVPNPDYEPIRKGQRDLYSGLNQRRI

B1: HLA-G-0090 (antibody, IgG1, V domains shown)
VH: QVQLQQSGPGLLKPSQTLSLTCAISGDSVSSNRAAWNWIRQSPSRGLEWLGRTYYRSKWYNDYAVSVQGRITLIPDTSKNQFSLRLNSVTPEDTAVYYCASVRAVAPFDYWGQGVLVTVSS
VL: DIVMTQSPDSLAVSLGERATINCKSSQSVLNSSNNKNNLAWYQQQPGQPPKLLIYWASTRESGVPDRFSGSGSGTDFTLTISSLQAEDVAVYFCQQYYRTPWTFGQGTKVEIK
modifications: N-glycosylation motif NSS in CDR-L1 at light chain positions 31 to 33 (Fab glycosylation detected)
notes: the parental antibody was expressed alongside them; also called parental antibody
For the molecule B1, the “relative HLA-G binding signal compared to Ref (as 100%), by SPR RAC” value in assay [1] was determined as 100%; in [2] it was 99%; in [6], 96%. The results for the MFI in [3] and in [8] were 13100 and 6060, respectively. The “inhibition of ILT2 binding to Jeg3 cells” value in assay [4] turned out to be 72%. Further, the Kd (commonly a measure of binding affinity in units of concentration) in assay [5] was determined as 1.4 nM; in assay [7], 1.2 nM. Also, the koff (as a rule, the rate constant with which the complex falls apart) in assay [5] was found to be 0.00178 s⁻¹; in assay [7], 0.00138 s⁻¹. For the same molecule, the results for the association rate constant (kon) in assay [5] and in assay [7] were 1.3e+06 M⁻¹ s⁻¹ and 1.19e+06 M⁻¹ s⁻¹, respectively. Moreover, the t½ (commonly how long it takes for the measured level to halve) in assay [5] is 6.5 min; in assay [7], 8.35 min. For the same molecule, the binding result (in assay [9]; with rat RT1 (SEQ ID NO: 43)) was “no binding” in each case.

B2: HLA-G-0090-VL-S33A (antibody, IgG1, V domains shown)
VH: QVQLQQSGPGLLKPSQTLSLTCAISGDSVSSNRAAWNWIRQSPSRGLEWLGRTYYRSKWYNDYAVSVQGRITLIPDTSKNQFSLRLNSVTPEDTAVYYCASVRAVAPFDYWGQGVLVTVSS
VL: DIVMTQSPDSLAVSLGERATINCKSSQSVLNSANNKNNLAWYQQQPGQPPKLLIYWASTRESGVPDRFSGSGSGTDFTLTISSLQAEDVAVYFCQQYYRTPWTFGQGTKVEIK
notes: also called HLA-G-0090-S33A
Regarding B2, the “relative HLA-G binding signal compared to Ref (as 100%), by SPR RAC” value in [1] turned out to be 100%; in [2], 99%; in [6], 96%. The MFI in assay [3] turned out to be 14300; in assay [8], 6380. Further, in assay [4], the “inhibition of ILT2 binding to Jeg3 cells” value turned out to be 72%. The Kd came out at 1.2 nM in [5] and 1 nM in [7]. For the same molecule, the figures for the koff in assay [5] and in assay [7] were 0.00149 s⁻¹ and 0.00124 s⁻¹, respectively. Besides, the kon in [5] and in [7] was 1.24e+06 M⁻¹ s⁻¹ in each case. For the same molecule, the t½ in assay [5] turned out to be 7.76 min; in [7], 9.3 min. In addition, the binding result (in assay [9]; with rat RT1 (SEQ ID NO: 43)) was “no binding” throughout.

B3: HLA-G-0090-VL-S33P (antibody, IgG1, V domains shown)
VH: QVQLQQSGPGLLKPSQTLSLTCAISGDSVSSNRAAWNWIRQSPSRGLEWLGRTYYRSKWYNDYAVSVQGRITLIPDTSKNQFSLRLNSVTPEDTAVYYCASVRAVAPFDYWGQGVLVTVSS
VL: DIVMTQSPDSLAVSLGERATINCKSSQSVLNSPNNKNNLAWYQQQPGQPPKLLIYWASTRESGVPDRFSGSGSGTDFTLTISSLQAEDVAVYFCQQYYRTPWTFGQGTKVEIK
notes: also called HLA-G-0090-S33P
Turning to B3, in [5], the Kd worked out at 2.7 nM; the koff was determined as 0.00368 s⁻¹; the kon (in general, the second-order rate constant of association) is 1.36e+06 M⁻¹ s⁻¹; the t½ amounted to 3.13 min. Also, the “factor of loss of binding affinity compared to HLA-G-0090” value in assay [10] is 2 fold. In addition, in [7], the Kd turned out to be 1.8 nM, the koff came out at 0.00236 s⁻¹, the kon was 1.34e+06 M⁻¹ s⁻¹ and the t½ amounted to 4.91 min.

B4: HLA-G-0090-VL-S32P (antibody, IgG1, V domains shown)
VH: QVQLQQSGPGLLKPSQTLSLTCAISGDSVSSNRAAWNWIRQSPSRGLEWLGRTYYRSKWYNDYAVSVQGRITLIPDTSKNQFSLRLNSVTPEDTAVYYCASVRAVAPFDYWGQGVLVTVSS
VL: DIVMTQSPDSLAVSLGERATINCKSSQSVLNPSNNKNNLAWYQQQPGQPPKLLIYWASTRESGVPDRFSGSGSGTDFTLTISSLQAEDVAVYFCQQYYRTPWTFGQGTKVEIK
notes: also called HLA-G-0090-S32P
Consider B4, for which the “relative HLA-G binding signal compared to Ref (as 100%), by SPR RAC” value in assay [1] worked out at 100%; in [2] it was 99%; in assay [6] it was 98%. The MFI in [3] was found to be 13900; in assay [8] it was 6330. The “inhibition of ILT2 binding to Jeg3 cells” value in [4] was determined as 72%. Moreover, the Kd is 1.2 nM in assay [5] and 1 nM in assay [7]. For the same molecule, the figures for the koff in assay [5] and in [7] were 0.00157 s⁻¹ and 0.00124 s⁻¹, respectively. The kon in assay [5] turned out to be 1.27e+06 M⁻¹ s⁻¹; in assay [7] it was 1.19e+06 M⁻¹ s⁻¹. Moreover, the t½ in assay [5] is 7.34 min; in [7] it was 9.29 min. The binding result (in assay [9]; in the assay with rat RT1 (SEQ ID NO: 43)) was “no binding” each time.

B5: HLA-G-0090-VL-S33D (antibody, IgG1, V domains shown)
VH: QVQLQQSGPGLLKPSQTLSLTCAISGDSVSSNRAAWNWIRQSPSRGLEWLGRTYYRSKWYNDYAVSVQGRITLIPDTSKNQFSLRLNSVTPEDTAVYYCASVRAVAPFDYWGQGVLVTVSS
VL: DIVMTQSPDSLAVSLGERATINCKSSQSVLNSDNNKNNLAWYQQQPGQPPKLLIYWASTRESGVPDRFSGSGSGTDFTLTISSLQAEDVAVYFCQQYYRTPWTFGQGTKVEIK
notes: also called HLA-G-0090-S33D
B5: in assay [5], the Kd stood at 7.4 nM, the koff was 0.00667 s⁻¹, the kon is 897000 M⁻¹ s⁻¹ and the t½ was found to be 1.73 min. In assay [10], the “factor of loss of binding affinity compared to HLA-G-0090” value is 5 fold. Also, in assay [7], the Kd is 4.8 nM, the koff is 0.00344 s⁻¹, the association rate constant (kon) is 717000 M⁻¹ s⁻¹ and the t½ turned out to be 3.36 min.

B6: P035-093 (P035) human IgG1 PGLALA (antibody, V domains shown)
VH: EVQLLESGGGLVQPGGSLRLSCAASGFTFSSYAMNWVRQAPGKGLEWVSRIRSKYNNYATYYADSVKGRFTISRDDSKNTLYLQMNSLRAEDTAVYYCVRASNFPASYVSYFAYWGQGTLVTVSS
VL: QAVVTQEPSLTVSPGGTVTLTCGSSTGAVTTSNYANWVQEKPGQAFRGLIGGTNKRAPGTPARFSGSLLGGKAALTLSGAQPEDEAEYYCALWYSNLWVFGGGTKLTVLR
Regarding B6, the EC50 (read off the curve) (as a rule, the concentration that produces a half-maximal response) in assay [11] was ~0.5 nM.

B7: CD3orig human IgG1 PGLALA (antibody, V domains shown)
VH: not shown
VL: QAVVTQEPSLTVSPGGTVTLTCGSSTGAVTTSNYANWVQEKPGQAFRGLIGGTNKRAPGTPARFSGSLLGGKAALTLSGAQPEDEAEYYCALWYSNLWVFGGGTKLTVLR
notes: Human IgG1 format with P329G L234A L235A mutations in the Fc region
Turning to B7, in assay [11], the “EC50 (read off the curve)” value is ~0.8 nM.

Values taken from patent US20260265381A1 (Hoffmann-La Roche, published 2026).
